Results on twelve substances are retold here after the supplement of paper PMC11316812.

The subject of one series is hTERT-HMEC. The experiment in a line: percentage of EdU-negative (G0-arrested) nuclei per well, 72 h; higher = more G0 arrest. Conditions: reference: sequence is the full UniProt precursor, the tested protein was the secreted form or ectodomain.
The test system of another series is MCF7. Described as above. Conditions: reference: sequence is the full UniProt precursor, the tested protein was the secreted form or ectodomain.
Setting [1] is: protein concentration 0.03125 µM.
Where [2] appears, read: protein concentration 0.3125 µM.
Setting [3] is: protein concentration 0.012015 µM.
The mark [4] stands for this setting: protein concentration 0.12015 µM.
Setting [5] is: protein concentration 0.0225 µM.
Setting [6] is: protein concentration 0.023015 µM.
[7] abbreviates: protein concentration 0.23015 µM.
Setting [8] is: protein concentration 0.0065 µM.

± gives the standard deviation of the averaged measurements.
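Note: secreted proteins added to cultured cells, EdU pulse at the end, nuclei found by Hoechst imaging, EdU status from nuclear versus surrounding ring intensity ratio, PBS as neutral control.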

Sequence of Q9UBP4 (chain, as listed by the source): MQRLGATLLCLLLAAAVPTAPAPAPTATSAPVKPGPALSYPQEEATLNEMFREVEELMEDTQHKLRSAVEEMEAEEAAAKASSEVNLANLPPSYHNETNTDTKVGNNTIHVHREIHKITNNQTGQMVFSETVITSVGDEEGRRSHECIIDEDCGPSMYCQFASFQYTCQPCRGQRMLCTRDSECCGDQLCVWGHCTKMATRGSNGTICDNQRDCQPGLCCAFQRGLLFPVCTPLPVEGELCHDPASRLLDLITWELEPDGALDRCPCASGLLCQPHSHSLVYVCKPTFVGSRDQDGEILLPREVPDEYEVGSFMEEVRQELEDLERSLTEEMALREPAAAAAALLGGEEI

Consider “MKTLFLGVTLGLAAALSFTLEEEDITGTWYVKAMVVDKDFPEDRRPRKVSPVKVTALGGGNLEATFTFMREDRCIQKKILMRKTEEPGKFSAYGGRKLIYLQELPGTDDYVFYCKDQRRGGLRYMGKLVGRNPNTNLEALEEFKKLVQHKGLSEEDIFMPLQTGSCVLEH [Q9NY56]”, for which the “percentage of EdU-negative” value in the series on hTERT-HMEC (setting [1]) turned out to be 5 ± 0.88%; in the series on hTERT-HMEC (setting [2]) it was 6.83 ± 0.95%; in the series on MCF7 (setting [1]), 25.1 ± 0.74%; with MCF7 (setting [2]), 25.7 ± 0.44%.

Take Q9UBP4: the “percentage of EdU-negative” value amounted to 5.79 ± 1.3% in the series with hTERT-HMEC (setting [3]), 6.35 ± 0.93% in the series with hTERT-HMEC (setting [4]), 24.3 ± 2.6% with MCF7 (setting [3]) and 25.52 ± 0.066% with MCF7 (setting [4]).

Take “MGLWGQSVPTASSARAGRYPGARTASGTRPWLLDPKILKFVVFIVAVLLPVRVDSATIPRQDEVPQQTVAPQQQRRSLKEEECPAGSHRSEYTGACNPCTEGVDYTIASNNLPSCLLCTVCKSGQTNKSSCTTTRDTVCQCEKGSFQDKNSPEMCRTCRTGCPRGMVKVSNCTPRSDIKCKNESAASSTGKTPAAEETVTTILGMLASPYHYLIIIVVLVIILAVVVVGFSCRKKFISYLKGICSGGGGGPERVHRVLFRRRSCPSRVPGAEDNARNETLSNRYLQPTQVSEQEIQGQELAELTGVTVELPEEPQRLLEQAEAEGCQRRRLLVPVNDADSADISTLLDASATLEEGHAKETIQDQLVGSEKLFYEEDEAGSATSCL [Q9UBN6]”: the “percentage of EdU-negative” value in the series with hTERT-HMEC (setting [5]) came to 4.16 ± 0.28%; with hTERT-HMEC (protein concentration 0.225 µM), 4.86 ± 0.69%; in the series on MCF7 (setting [5]) it was 24 ± 0.81%; in the series on MCF7 (protein concentration 0.225 µM), 24.3 ± 2%.

“MWSGWWLWPLVAVCTADFFRDEAERIMRDSPVIDGHNDLPWQLLDMFNNRLQDERANLTTLAGTHTNIPKLRAGFVGGQFWSVYTPCDTQNKDAVRRTLEQMDVVHRMCRMYPETFLYVTSSAGIRQAFREGKVASLIGVEGGHSIDSSLGVLRALYQLGMRYLTLTHSCNTPWADNWLVDTGDSEPQSQGLSPFGQRVVKELNRLGVLIDLAHVSVATMKATLQLSRAPVIFSHSSAYSVCASRRNVPDDVLRLVKQTDSLVMVNFYNNYISCTNKANLSQVADHLDHIKEVAGARAVGFGGDFDGVPRVPEGLEDVSKYPDLIAELLRRNWTEAEVKGALADNLLRVFEAVEQASNLTQAPEEEPIPLDQLGGSCRTHYGYSSGASSLHRHWGLLLASLAPLVLCLSLL”: the “percentage of EdU-negative” value in the series on hTERT-HMEC (setting [5]) was 5.01 ± 0.58%; with hTERT-HMEC (protein concentration 0.225 µM), 5.87 ± 0.22%; in the series with MCF7 (setting [5]), 25 ± 0.35%; in the series with MCF7 (protein concentration 0.225 µM), 25.2 ± 0.86%.

With “MLAVGCALLAALLAAPGAALAPRRCPAQEVARGVLTSLPGDSVTLTCPGVEPEDNATVHWVLRKPAAGSHPSRWAGMGRRLLLRSVQLHDSGNYSCYRAGRPAGTVHLLVDVPPEEPQLSCFRKSPLSNVVCEWGPRSTPSLTTKAVLLVRKFQNSPAEDFQEPCQYSQESQKFSCQLAVPEGDSSFYIVSMCVASSVGSKFSKTQTFQGCGILQPDPPANITVTAVARNPRWLSVTWQDPHSWNSSFYRLRFELRYRAERSKTFTTWMVKDLQHHCVIHDAWSGLRHVVQLRAQEEFGQGEWSEWSPEAMGTPWTESRSPPAENEVSTPMQALTTNKDDDNILFRDSANATSLPVQDSSSVPLPTFLVAGGSLAFGTLLCIAIVLRFKKTWKLRALKEGKTSMHPPYSLGQLVPERPRPTPVLVPLISPPVSPSSLGSDNTSSHNRPDARDPRSPYDISNTDYFFPR”, the “percentage of EdU-negative” value came out at 5.6 ± 1.1% in the series with hTERT-HMEC (setting [6]), 5.05 ± 0.44% in the series with hTERT-HMEC (setting [7]), 25.4 ± 3% in the series with MCF7 (setting [6]) and 24.4 ± 1.3% with MCF7 (setting [7]).

As for “MANRGPAYGLSREVQQKIEKQYDADLEQILIQWITTQCRKDVGRPQPGRENFQNWLKDGTVLCELINALYPEGQAPVKKIQASTMAFKQMEQISQFLQAAERYGINTTDIFQTVDLWEGKNMACVQRTLMNLGGLAVARDDGLFSGDPNWFPKKSKENPRNFSDNQLQEGKNVIGLQMGTNRGASQAGMTGYGMPRQIL”, the “percentage of EdU-negative” value with hTERT-HMEC (setting [1]) was determined as 6.1 ± 1.2%; with hTERT-HMEC (setting [2]), 5.189 ± 0.039%; in the series with MCF7 (setting [1]), 25.9 ± 1.3%; in the series with MCF7 (setting [2]) it was 25.2 ± 2.8%.

Regarding “MAPAGCCCCCCFWGGAVAAAGAARRVLLLLLLGVLSAGLRPGALATEHYSPLSLLKQELQHRQQQEAPAGGGGCSPQSGDWGDQYSAECGESSFLNFHDSDCEPKGSSPCDSLLSLNTEKILSQAKSIAEQKRFPFATDNDSTNEELAIAYVLIGSGLYDEAIRHFSTMLQEEPDLVSAIYGRGIAYGKKGLHDIKNAELALFELSRVITLEPDRPEVFEQRAEILSPLGRINEAVNDLTKAIQLQPSARLYRHRGTLYFISEDYATAHEDFQQSLELNKNQPIAMLYKGLTFFHRGLLKEAIESFKEALKQKVDFIDAYKSLGQAYRELGNFEAATESFQKALLLNQNHVQTLQLRGMMLYHHGSLQEALKNFKRCLQLEPYNEVCQYMKGLSHVAMGQFYEGIKAQTKVMLNDPLPGQKASPEYLKVKYLREYSRYLHAHLDTPLTEYNIDVDLPGSFKDHWAKNLPFLIEDYEEQPGLQPHIKDVLHQNFESYKPEVQELICVADRLGSLMQYETPGFLPNKRIHRAMGLAALEVMQAVQRTWTNSKVRMNGKTRLMQWRDMFDIAVKWRRIADPDQPVLWLDQMPARSLSRGFNNHINLIRGQVINMRYLEYFEKILHFIKDRILVYHGANNPKGLLEVREALEKVHKVEDLLPIMKQFNTKTKDGFTVNTKVPSLKDQGKEYDGFTITITGDKVGNILFSVETQTTEERTQLYHAEIDALYKDLTAKGKVLILSSEFGEADAVCNLILSLVYYFYNLMPLSRGSSVIAYSVIVGALMASGKEVAGKIPKGKLVDFEAMTAPGSEAFSKVAKSWMNLKSISPSYKTLPSVSETFPTLRSMIEVLNTDSSPRCLKKL [Q8NBP0]”, the “percentage of EdU-negative” value in the series on hTERT-HMEC (protein concentration 0.012 µM) came out at 5.436 ± 0.048%; with hTERT-HMEC (protein concentration 0.12 µM), 11 ± 2.8%; in the series on MCF7 (protein concentration 0.012 µM) it was 25.9 ± 1.1%; in the series on MCF7 (protein concentration 0.12 µM), 27.7 ± 0.85%.

For the substance “MRLAVLFSGALLGLLAAQGTGNDCPHKKSATLLPSFTVTPTVTESTGTTSHRTTKSHKTTTHRTTTTGTTSHGPTTATHNPTTTSHGNVTVHPTSNSTATSQGPSTATHSPATTSHGNATVHPTSNSTATSPGFTSSAHPEPPPPSPSPSPTSKETIGDYTWTNGSQPCVHLQAQIQIRVMYTTQGGGEAWGISVLNPNKTKVQGSCEGAHPHLLLSFPYGHLSFGFMQDLQQKVVYLSYMAVEYNVSFPHAAQWTFSAQNASLRDLQAPLGQSFSCSNSSIILSPAVHLDLLSLRLQAAQLPHTGVFGQSFSCPSDRSILLPLIIGLILLGLLALVLIAFCIIRRRPSAYQAL”, the “percentage of EdU-negative” value worked out at 4.81 ± 0.13% in the series with hTERT-HMEC (setting [5]), 7.36 ± 0.68% with hTERT-HMEC (protein concentration 0.225 µM), 25.5 ± 1.1% in the series with MCF7 (setting [5]) and 26.5 ± 0.42% in the series with MCF7 (protein concentration 0.225 µM).

Consider “MTDRQTDTAPSPSYHLLPGRRRTVDAAASRGQGPEPAPGGGVEGVGARGVALKLFVQLLGCSRFGGAVVRAGEAEPSGAARSASSGREEPQPEEGEEEEEKEEERGPQWRLGARKPGSWTGEAAVCADSAPAARAPQALARASGRGGRVARRGAEESGPPHSPSRRGSASRAGPGRASETMNFLLSWVHWSLALLLYLHHAKWSQAAPMAEGGGQNHHEVVKFMDVYQRSYCHPIETLVDIFQEYPDEIEYIFKPSCVPLMRCGGCCNDEGLECVPTEESNITMQIMRIKPHQGQHIGEMSFLQHNKCECRPKKDRARQEKKSVRGKGKGQKRKRKKSRYKSWSVPCGPCSERRKHLFVQDPQTCKCSCKNTDSRCKARQLELNERTCRCDKPRR”, for which the “percentage of EdU-negative” value was found to be 5.12 ± 1.2% in the series on hTERT-HMEC (setting [1]), 5.48 ± 0.89% in the series on hTERT-HMEC (setting [2]), 27 ± 1.3% with MCF7 (setting [1]) and 25.1 ± 0.32% in the series on MCF7 (setting [2]).

For “MAVVPLLLLGGLWSAVGASSLGVVTCGSVVKLLNTRHNVRLHSHDVRYGSGSGQQSVTGVTSVDDSNSYWRIRGKSATVCERGTPIKCGQPIRLTHVNTGRNLHSHHFTSPLSGNQEVSAFGEEGEGDYLDDWTVLCNGPYWVRDGEVRFKHSSTEVLLSVTGEQYGRPISGQKEVHGMAQPSQNNYWKAMEGIFMKPSELLKAEAHHAEL”, the “percentage of EdU-negative” value came out at 5.43 ± 0.74% with hTERT-HMEC (setting [8]), 7.72 ± 0.45% in the series on hTERT-HMEC (protein concentration 0.065 µM), 24.7 ± 0.39% with MCF7 (setting [8]) and 25.8 ± 1.1% in the series on MCF7 (protein concentration 0.065 µM).

For the substance “MKPALLEVMRMNRICRMVLATCLGSFILVIFYFQSMLHPVMRRNPFGVDICCRKGSRSPLQELYNPIQLELSNTAVLHQMRRDQVTDTCRANSATSRKRRVLTPNDLKHLVVDEDHELIYCYVPKVACTNWKRLMMVLTGRGKYSDPMEIPANEAHVSANLKTLNQYSIPEINHRLKSYMKFLFVREPFERLVSAYRNKFTQKYNISFHKRYGTKIIKRQRKNATQEALRKGDDVKFEEFVAYLIDPHTQREEPFNEHWQTVYSLCHPCHIHYDLVGKYETLEEDSNYVLQLAGVGSYLKFPTYAKSTRTTDEMTTEFFQNISSEHQTQLYEVYKLDFLMFNYSVPSYLKLE [Q9NPF2]”, the “percentage of EdU-negative” value was 5.07 ± 0.051% in the series on hTERT-HMEC (setting [5]), 18.8 ± 3% in the series on hTERT-HMEC (protein concentration 0.225 µM), 23.2 ± 1.9% with MCF7 (setting [5]) and 24.6 ± 1.8% in the series on MCF7 (protein concentration 0.225 µM).

In the case of “MALSFSLLMAVLVLSYKSICSLGCDLPQTHSLGNRRALILLAQMGRISHFSCLKDRYDFGFPQEVFDGNQFQKAQAISAFHEMIQQTFNLFSTKDSSAAWDETLLDKFYIELFQQLNDLEACVTQEVGVEEIALMNEDSILAVRKYFQRITLYLMGKKYSPCAWEVVRAEIMRSFSFSTNLQKGLRRKD”, the “percentage of EdU-negative” value was 11.7 ± 1.5% with hTERT-HMEC (setting [1]), 18.9 ± 0.54% in the series with hTERT-HMEC (setting [2]), 47.8 ± 1.4% in the series with MCF7 (setting [1]) and 49.2 ± 3.4% with MCF7 (setting [2]).
